The labels stand for the following.
B1: Solute carrier family 2, facilitated glucose transporter member 8 (Mus musculus), Q9JIF3 (parent)
chain: MSPEDPQETQPLLRPPEARTPRGRRVFLASFAAALGPLSFGFALGYSSPAIPSLRRTAPPALRLGDNAASWFGAVVTLGAAAGGILGGWLLDRAGRKLSLLLCTVPFVTGFAVITAARDVWMLLGGRLLTGLACGVASLVAPVYISEIAYPAVRGLLGSCVQLMVVTGILLAYVAGWVLEWRWLAVLGCVPPTLMLLLMCYMPETPRFLLTQHQYQEAMAALRFLWGSEEGWEEPPVGAEHQGFQLALLRRPGIYKPLIIGISLMVFQQLSGVNAIMFYANSIFEEAKFKDSSLASVTVGIIQVLFTAVAALIMDRAGRRLLLALSGVIMVFSMSAFGTYFKLTQSLPSNSSHVGLVPIAAEPVDVQVGLAWLAVGSMCLFIAGFAVGWGPIPWLLMSEIFPLHVKGVATGICVLTNWFMAFLVTKEFSSVMEMLRPYGAFWLTAAFCALSVLFTLTVVPETKGRTLEQVTAHFEGR
partner: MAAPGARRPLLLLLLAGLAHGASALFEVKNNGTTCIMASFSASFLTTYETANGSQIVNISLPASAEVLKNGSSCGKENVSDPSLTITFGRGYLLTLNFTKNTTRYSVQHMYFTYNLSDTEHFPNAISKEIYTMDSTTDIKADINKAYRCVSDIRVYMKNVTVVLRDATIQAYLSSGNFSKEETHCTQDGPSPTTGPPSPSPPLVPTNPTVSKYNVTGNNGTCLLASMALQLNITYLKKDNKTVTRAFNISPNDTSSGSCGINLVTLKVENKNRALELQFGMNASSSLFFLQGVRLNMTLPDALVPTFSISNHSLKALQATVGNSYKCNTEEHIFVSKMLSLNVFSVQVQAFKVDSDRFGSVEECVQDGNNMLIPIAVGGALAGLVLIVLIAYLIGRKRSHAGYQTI
B2: Solute carrier family 2, facilitated glucose transporter member 8 (Mus musculus), Q9JIF3 (parent)
chain: B1 chain

The first assay covers variants of B1. The settings on record: with lamp1_mouse Lamp1, P11438.
Take L12A: the “effect of a mutation on the interaction” value was “disrupting interaction”.

In another assay the parent is B2. The note with it: with ap1g1_human AP1G1, O43747.
Chain of ap1g1_human AP1G1, O43747 (O43747 whole entry): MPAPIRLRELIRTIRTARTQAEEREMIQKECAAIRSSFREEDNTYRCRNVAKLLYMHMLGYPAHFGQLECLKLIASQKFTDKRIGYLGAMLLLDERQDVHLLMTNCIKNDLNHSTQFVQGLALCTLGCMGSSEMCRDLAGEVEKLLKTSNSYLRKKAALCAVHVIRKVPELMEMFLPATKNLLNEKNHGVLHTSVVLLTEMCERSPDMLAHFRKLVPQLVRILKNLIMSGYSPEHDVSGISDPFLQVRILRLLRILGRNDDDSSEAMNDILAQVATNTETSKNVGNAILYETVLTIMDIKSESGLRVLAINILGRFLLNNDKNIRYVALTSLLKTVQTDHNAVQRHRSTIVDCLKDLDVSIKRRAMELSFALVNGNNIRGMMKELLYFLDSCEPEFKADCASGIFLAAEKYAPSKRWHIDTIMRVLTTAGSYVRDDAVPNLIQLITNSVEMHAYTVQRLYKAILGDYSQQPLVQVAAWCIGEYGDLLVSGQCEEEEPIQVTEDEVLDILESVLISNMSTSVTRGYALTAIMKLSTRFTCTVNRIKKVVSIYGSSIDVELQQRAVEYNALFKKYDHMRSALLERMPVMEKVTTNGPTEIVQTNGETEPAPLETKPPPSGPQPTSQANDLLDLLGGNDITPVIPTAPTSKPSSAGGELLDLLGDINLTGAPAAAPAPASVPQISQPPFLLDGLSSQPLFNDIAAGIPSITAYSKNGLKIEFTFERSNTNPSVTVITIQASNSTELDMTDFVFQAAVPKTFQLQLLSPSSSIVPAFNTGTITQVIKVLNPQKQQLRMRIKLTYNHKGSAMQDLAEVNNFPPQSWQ
L12A: the “effect of a mutation on the interaction” value was “disrupting interaction”.

The variants in another assay derive from B2. The note with it: with ap1g1_mouse Ap1g1, P22892.
Chain of ap1g1_mouse Ap1g1, P22892 (P22892 whole entry): as the sequence (O43747 whole entry) above, with T596S, S650A, N664T, A674T, A702P, I769V counted along it
Consider L12A, for which the “effect of a mutation on the interaction” value is listed as “disrupting interaction”.

Variants of B2 are the subject of another assay. The note with it: with ap2b1_rat Ap2b1, P62944.
Chain of ap2b1_rat Ap2b1, P62944 (P62944 whole entry): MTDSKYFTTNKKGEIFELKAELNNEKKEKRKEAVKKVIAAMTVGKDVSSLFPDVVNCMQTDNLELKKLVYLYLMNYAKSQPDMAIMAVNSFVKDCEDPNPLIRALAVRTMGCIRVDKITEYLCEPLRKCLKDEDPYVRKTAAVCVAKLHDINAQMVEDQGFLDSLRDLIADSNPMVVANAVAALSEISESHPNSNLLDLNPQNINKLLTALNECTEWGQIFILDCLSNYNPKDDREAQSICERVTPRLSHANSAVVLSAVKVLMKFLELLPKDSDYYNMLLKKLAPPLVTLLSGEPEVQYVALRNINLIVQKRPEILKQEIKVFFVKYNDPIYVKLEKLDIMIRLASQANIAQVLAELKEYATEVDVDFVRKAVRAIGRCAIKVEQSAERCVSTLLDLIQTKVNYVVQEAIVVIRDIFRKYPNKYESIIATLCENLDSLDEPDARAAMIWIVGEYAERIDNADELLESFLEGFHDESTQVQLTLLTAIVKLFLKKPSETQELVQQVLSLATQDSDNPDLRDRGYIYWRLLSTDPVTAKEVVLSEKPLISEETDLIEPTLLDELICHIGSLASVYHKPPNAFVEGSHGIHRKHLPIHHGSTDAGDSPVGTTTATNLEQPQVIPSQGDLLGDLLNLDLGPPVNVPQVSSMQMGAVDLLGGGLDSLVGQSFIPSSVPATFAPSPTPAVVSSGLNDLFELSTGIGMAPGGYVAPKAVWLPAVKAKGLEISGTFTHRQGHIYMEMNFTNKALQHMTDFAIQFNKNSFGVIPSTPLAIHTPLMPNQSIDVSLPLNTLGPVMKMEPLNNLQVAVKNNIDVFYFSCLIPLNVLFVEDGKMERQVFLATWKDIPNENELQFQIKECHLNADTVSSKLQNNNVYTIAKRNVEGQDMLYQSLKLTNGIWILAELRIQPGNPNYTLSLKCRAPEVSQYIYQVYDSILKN
For the variant L12A, the “effect of a mutation on the interaction” value is on record as “decreasing interaction”.

Variants of B2 are the subject of a further assay. The settings on record: with ap2b1_mouse Ap2b1, Q9DBG3.
Chain of ap2b1_mouse Ap2b1, Q9DBG3 (Q9DBG3 whole entry): as the sequence (P62944 whole entry) above, with A612T counted along it
As to L13A, the “effect of a mutation on the interaction” value is recorded as “increasing interaction”.

For the origin of these results see IntAct's records for PubMed 19523115.
